Consider 21 molecules from publication PMC11369174 (Molecular Systems Biology, 2024).

Conditions in all cases: both partners purified
Assay [1] has as its target T1, Ras-GTPase-activating protein-binding protein 1 (G3BP1) NTF2 domain (human, UniProt Q13283 11-133).
T1 construct: G3BP1, NTF2 domain; limits in Dataset EV2; source: E. coli BL21 DE (Gold), purified
The assay can be described thus: fluorescence polarisation; displacement: unlabelled peptide titrated onto a complex of FITC-labelled peptide (10 nM) and protein domain (1-2x KD); 50 mM sodium phosphate buffer pH 7.4 (CASK: plus 100 mM NaCl); KD calculated from IC50; technical triplets.
T1 sequence (Q13283 11-133): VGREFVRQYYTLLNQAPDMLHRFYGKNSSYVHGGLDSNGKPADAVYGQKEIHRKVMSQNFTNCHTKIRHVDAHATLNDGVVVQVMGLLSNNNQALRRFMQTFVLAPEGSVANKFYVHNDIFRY

The target of assay [2] is T2, ADP-ribosylation factor-binding protein GGA1 (GGA1) VHS domain (human, UniProt Q9UJY5 17-147).
T2 construct: GGA1, VHS domain; limits in Dataset EV2; source: E. coli BL21 DE (Gold), purified
T2 sequence (looked up): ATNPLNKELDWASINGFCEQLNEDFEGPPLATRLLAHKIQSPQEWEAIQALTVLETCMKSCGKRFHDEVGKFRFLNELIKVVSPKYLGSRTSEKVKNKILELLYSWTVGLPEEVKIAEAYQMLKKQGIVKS
Described as above.

In assay [3] the target is T3, clathrin N-terminal domain (CLTC NTD) (human).
T3 chain: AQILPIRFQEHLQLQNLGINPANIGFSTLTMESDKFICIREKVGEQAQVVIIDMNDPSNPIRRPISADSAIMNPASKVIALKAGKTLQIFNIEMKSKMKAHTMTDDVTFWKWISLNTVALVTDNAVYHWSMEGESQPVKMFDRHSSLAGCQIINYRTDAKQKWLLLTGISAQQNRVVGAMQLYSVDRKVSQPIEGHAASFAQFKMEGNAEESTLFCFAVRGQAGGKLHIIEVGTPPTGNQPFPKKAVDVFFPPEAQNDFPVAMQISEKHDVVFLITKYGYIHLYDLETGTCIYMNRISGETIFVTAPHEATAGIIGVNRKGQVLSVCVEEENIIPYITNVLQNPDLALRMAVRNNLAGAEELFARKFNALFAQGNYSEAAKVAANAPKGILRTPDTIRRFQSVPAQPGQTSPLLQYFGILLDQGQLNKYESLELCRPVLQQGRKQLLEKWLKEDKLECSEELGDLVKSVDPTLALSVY
Described as above.

Assay [4] has as its target T4, peripheral plasma membrane protein CASK (CASK) kinase domain (human, UniProt O14936 12-276).
T4 construct: CASK, kinase domain; limits in Dataset EV2; source: E. coli Rosetta, purified
T4 sequence (looked up): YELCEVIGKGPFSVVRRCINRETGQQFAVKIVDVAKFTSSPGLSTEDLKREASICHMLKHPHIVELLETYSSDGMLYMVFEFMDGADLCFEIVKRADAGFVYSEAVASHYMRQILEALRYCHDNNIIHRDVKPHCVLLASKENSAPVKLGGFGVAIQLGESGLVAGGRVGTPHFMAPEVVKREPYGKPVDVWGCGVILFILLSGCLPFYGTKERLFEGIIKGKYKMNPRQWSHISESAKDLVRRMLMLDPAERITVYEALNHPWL
The description is as above.

In assay [5] the target is T5, importin subunit α-3 (KPNA4) ARM domain (human).
T5 chain: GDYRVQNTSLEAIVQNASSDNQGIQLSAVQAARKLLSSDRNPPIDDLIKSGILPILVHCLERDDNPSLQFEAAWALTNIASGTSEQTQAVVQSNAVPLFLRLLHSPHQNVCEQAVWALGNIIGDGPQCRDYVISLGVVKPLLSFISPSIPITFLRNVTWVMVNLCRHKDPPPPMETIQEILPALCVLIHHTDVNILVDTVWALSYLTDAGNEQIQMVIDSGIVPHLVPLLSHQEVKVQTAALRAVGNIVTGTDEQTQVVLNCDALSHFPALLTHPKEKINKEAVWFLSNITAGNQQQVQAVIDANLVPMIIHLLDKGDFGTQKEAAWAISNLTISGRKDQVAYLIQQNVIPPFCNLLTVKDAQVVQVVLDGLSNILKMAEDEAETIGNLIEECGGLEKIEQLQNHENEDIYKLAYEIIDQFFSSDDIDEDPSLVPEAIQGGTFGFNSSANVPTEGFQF
The experiment in a line: fluorescence polarisation; displacement as a1, with a FITC-labelled probe sampling the minor pocket of the KPNA4 ARM domain. In general terms: Polarisation of emitted light reports the rotation of a fluorescent probe.

The target in assay [6] is T5, importin subunit α-3 (KPNA4) ARM domain. The experiment in a line: fluorescence polarisation; displacement as a1, with a FITC-labelled probe sampling the major pocket of the ARM domain (KPNA4, KPNA7).
In assay [7] the target is importin subunit α-8 (KPNA7) ARM domain. Described as above.
Sequence of importin subunit α-8 (KPNA7) ARM domain (chain, as listed by the source): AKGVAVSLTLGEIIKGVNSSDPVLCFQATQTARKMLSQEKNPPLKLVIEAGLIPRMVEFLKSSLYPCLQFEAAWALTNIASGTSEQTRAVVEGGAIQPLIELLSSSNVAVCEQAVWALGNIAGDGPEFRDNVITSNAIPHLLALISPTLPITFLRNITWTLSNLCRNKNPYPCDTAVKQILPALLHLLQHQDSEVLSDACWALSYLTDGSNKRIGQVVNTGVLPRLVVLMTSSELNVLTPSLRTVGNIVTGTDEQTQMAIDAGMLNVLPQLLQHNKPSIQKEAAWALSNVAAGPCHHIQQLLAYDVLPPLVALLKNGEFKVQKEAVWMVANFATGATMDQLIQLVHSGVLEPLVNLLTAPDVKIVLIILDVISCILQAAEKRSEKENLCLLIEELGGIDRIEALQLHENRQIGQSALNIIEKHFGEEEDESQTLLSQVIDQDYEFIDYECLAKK
The target in the next assay is T6, FITC-MYC (also: FITC label, position not given here).
T6 chain: PAAKRVKLD
The assay can be described thus: fluorescence polarisation; saturation binding: dilution series of the protein domain added to 10 nM FITC-labelled peptide; 50 mM sodium phosphate pH 7.4, 0.05% Tween (protein dialysed in 50 mM sodium phosphate with 1 mM DTT; CASK kinase domain with 100 mM NaCl in addition); quadratic fit; technical triplets.

A further assay concerns the target T7, FITC-NCOR2 (also: FITC label, position not given here).
T7 chain: PKRTYDMMEGRVGRAI
Described as above.

Assay [8] deals with T8, Clathrin N-terminal domain (CLTC NTD) (human).
T8 construct: also called Clathrin NTD
The experiment in a line: fluorescence polarisation.

Assay [9] addresses T9, Ras-GTPase-activating protein-binding protein 2 (G3BP2) NTF2 domain (human, UniProt Q9UN86 11-133).
T9 construct: G3BP2, NTF2 domain; limits in Dataset EV2; source: E. coli BL21 DE (Gold), purified
T9 sequence (looked up): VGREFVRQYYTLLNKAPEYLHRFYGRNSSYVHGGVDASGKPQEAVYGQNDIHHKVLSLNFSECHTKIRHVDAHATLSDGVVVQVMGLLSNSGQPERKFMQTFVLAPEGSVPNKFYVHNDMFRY
The experiment in a line: fluorescence polarisation; displacement: unlabelled peptide titrated onto a complex of FITC-labelled peptide (10 nM) and protein domain (1-2x KD); 50 mM sodium phosphate buffer pH 7.4 (CASK: plus 100 mM NaCl); KD calculated from IC50; technical triplets.

The target of another assay is T10, PPIA (human, UniProt P62937 1-165).
T10 construct: PPIA, human; source: E. coli BL21 (DE3) Gold, purified (glutathione or Ni2+ beads)
T10 sequence (P62937 whole entry): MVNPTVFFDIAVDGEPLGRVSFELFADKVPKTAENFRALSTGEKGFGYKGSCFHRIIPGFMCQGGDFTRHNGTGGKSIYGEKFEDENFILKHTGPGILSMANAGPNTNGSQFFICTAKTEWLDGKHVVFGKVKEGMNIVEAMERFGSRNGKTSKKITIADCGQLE
The experiment in a line: fluorescence polarisation; saturation binding: dilution series of the protein domain added to 10 nM FITC-labelled peptide; 50 mM sodium phosphate pH 7.4, 0.05% Tween (protein dialysed in 50 mM sodium phosphate with 1 mM DTT; CASK kinase domain with 100 mM NaCl in addition); quadratic fit; technical triplets.

The target in assay [10] is T11, Ras-GTPase-activating protein-binding protein 2 (G3BP2) NTF2 domain (human, UniProt Q9UN86 11-133).
T11 sequence (looked up): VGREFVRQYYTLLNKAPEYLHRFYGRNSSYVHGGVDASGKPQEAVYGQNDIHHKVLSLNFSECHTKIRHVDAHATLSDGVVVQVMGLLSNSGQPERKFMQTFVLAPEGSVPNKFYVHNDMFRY
The assay can be described thus: fluorescence polarisation.

The target of assay [11] is T12, Ras-GTPase-activating protein-binding protein 1 (G3BP1) NTF2 domain (human, UniProt Q13283 11-133).
T12 construct: also called G3BP1 NTF1
The experiment in a line: fluorescence polarisation.
T12 sequence (Q13283 11-133): as the sequence (Q13283 11-133) above

In assay [12] the target is T13, E3 ubiquitin-protein ligase NEDD4 (NEDD4) WW2 domain, GST-tagged (human).
T13 construct: also called NEDD4 WW2-GST
T13 sequence (P46934 whole entry, the tested form may be a part): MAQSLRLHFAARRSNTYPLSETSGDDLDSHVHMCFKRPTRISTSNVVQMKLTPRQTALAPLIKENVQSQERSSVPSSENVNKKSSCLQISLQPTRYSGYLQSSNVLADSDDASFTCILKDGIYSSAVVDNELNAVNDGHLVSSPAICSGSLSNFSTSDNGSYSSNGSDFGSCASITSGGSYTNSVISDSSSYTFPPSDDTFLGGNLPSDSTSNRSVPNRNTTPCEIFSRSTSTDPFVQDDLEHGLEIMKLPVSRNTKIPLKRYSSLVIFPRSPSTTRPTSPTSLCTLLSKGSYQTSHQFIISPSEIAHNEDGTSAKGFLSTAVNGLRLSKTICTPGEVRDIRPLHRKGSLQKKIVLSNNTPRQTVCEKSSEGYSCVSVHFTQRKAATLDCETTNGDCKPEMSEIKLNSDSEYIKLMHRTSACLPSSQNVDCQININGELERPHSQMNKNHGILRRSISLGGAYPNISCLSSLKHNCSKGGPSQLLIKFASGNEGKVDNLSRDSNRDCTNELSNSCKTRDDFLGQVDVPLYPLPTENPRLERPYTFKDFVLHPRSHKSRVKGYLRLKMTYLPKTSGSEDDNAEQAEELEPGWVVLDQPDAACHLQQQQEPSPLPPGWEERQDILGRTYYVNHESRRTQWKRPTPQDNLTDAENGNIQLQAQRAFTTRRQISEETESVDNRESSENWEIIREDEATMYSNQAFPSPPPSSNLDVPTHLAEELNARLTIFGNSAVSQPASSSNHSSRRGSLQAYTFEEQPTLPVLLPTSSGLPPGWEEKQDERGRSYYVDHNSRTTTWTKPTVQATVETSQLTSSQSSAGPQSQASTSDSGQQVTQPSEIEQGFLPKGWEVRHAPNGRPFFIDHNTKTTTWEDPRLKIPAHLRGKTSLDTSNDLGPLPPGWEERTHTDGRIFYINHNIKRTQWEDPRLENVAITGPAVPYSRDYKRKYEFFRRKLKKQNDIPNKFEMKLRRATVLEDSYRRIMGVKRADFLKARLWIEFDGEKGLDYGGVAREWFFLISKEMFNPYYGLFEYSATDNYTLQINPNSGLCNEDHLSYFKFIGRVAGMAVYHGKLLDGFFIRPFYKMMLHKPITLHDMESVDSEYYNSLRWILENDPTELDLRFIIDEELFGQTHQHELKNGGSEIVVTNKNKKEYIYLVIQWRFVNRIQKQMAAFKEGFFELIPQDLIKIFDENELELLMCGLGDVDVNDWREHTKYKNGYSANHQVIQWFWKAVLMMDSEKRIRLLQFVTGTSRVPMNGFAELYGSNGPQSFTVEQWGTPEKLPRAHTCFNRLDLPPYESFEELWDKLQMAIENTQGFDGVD
The experiment in a line: fluorescence polarisation.

For the next assay, the target named is T14, CREBBP KIX (human, UniProt Q92793 587-666).
T14 construct: CREBBP, KIX domain; limits in Dataset EV2; source: E. coli BL21 DE (Gold), purified
T14 sequence (Q92793 587-666): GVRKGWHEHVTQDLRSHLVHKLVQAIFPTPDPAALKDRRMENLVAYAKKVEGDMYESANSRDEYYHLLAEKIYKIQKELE
The experiment in a line: fluorescence polarisation; displacement: unlabelled peptide titrated onto a complex of FITC-labelled peptide (10 nM) and protein domain (1-2x KD); 50 mM sodium phosphate buffer pH 7.4 (CASK: plus 100 mM NaCl); KD calculated from IC50; technical triplets.

Where no end group is shown, it is not given here.

B1: CTNNB1_(27-42) S33F peptide (peptide)
peptide: QQSYLDFGIHSGATTT
notes: β-catenin residues 27-42; also called CTNNB1 S33F mutant; source: synthetic peptide, bought: Genecust
Take B1: the Kd (commonly the free concentration of one partner at which half of the binding sites on the other are occupied at equilibrium, for simple one-to-one binding) in [1] is 57 µM.

B2: myosin-9 peptide (MYH9_(1419-1433)) wild-type (peptide)
peptide: YQQELDDLLVDLDHQR
notes: MYH9 residues 1419-1433; also called MYH9 D1424H wild-type; source: synthetic peptide, bought: Genecust
In the case of B2, the Kd in assay [2] was 101 µM.

B3: MYH9_(1419-1433) D1424H peptide (peptide)
peptide: YQQELDHLLVDLDHQR
notes: MYH9 residues 1419-1433; also called MYH9 D1424H mutant; source: synthetic peptide, bought: Genecust
Consider B3, for which the equilibrium dissociation constant (Kd) in assay [2] was 306 µM.

B4: MITF 258-271 wild-type peptide (peptide)
peptide: SGNLIDLYGNQGLPY
notes: also called MITF Y265C wild-type; source: synthetic peptide, bought: Genecust
B4: the Kd in assay [3] was 191 µM.

B5: FANCA 1-16 S4L peptide (peptide)
peptide: MSDLWVPNSASGQDPG
notes: FANCA residues 1-16; also called FANCA S4L mutant; source: synthetic peptide, bought: Genecust
With B5, the Kd in assay [4] was 15 µM.

B6: ABRAXAS1_(349-364) R361Q peptide (peptide)
peptide: LDLDDRWQFKRSQLLD
notes: also called ABRAXAS1 R361Q mutant; source: synthetic peptide, bought: Genecust
Consider B6, for which the “KD, minor pocket” value in [5] is 297 µM. Further, the “KD, major pocket” value in assay [6] stood at 75 µM.

B7: CDC45_(152-166) R157C peptide (peptide)
peptide: EPSEKCTRLEEEIVEY
notes: also called CDC45 R157C mutant; source: synthetic peptide, bought: Genecust
For the molecule B7, the “KD, major pocket” value in assay [7] is 380 µM.

B8: Importin subunit alpha-8 (KPNA7) ARM domain (domain or fragment)
chain: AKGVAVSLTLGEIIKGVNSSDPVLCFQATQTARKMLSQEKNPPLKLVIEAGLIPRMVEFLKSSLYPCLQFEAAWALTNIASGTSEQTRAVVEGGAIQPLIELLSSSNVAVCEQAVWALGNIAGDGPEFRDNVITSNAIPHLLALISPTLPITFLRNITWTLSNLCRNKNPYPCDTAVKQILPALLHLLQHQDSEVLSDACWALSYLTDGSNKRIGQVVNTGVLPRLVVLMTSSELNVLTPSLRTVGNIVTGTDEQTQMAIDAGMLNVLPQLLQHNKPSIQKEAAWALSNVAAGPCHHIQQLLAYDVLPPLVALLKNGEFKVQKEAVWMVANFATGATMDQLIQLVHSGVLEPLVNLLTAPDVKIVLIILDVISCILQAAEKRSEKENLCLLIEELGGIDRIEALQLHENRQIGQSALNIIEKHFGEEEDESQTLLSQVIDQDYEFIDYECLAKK
Turning to B8, the Kd was 7.5 µM in the assay with FITC-MYC and 57 µM in the assay with FITC-NCOR2.
Turning to SVDLITFDSV (also: FITC label, position not given here) [FITC-NSP3], the Kd in [8] turned out to be 21 µM.

B9: BCL11A_(44-56) wild-type peptide (peptide)
peptide: DLLTCGQAQMNFPY
notes: BCL11A residues 44-56; source: synthetic peptide, bought: Genecust
B9: the Kd in [3] is 1100 µM.

B10: BCL11A_(44-56) C48F peptide (peptide)
peptide: DLLTFGQAQMNFPY
notes: BCL11A residues 44-56; also called C47F BCL11A; source: synthetic peptide, bought: Genecust
In the case of B10, the Kd in assay [3] was 361 µM; in [9], 215 µM.
For EQVEYGPLQAQM (also: FITC label, position not given here) [FITC-SPHK2], in the assay with PPIA, binding was characterised by a dissociation constant (Kd) of 42 µM.
For APRITFGGPSDS (also: FITC label, position not given here) [FITC-N_SARS-CoV-2], the values for the Kd in [10] and in assay [11] were 5.4 µM and 2.51 µM, respectively.
On to TDSPPPYSAG (also: FITC label, position not given here) [FITC-UL56(HHV-2)], for which the dissociation constant Kd in assay [12] is 4.1 µM.

B11: CDC45_(152-166) wild-type peptide (peptide)
peptide: EPSEKRTRLEEEIVEY
notes: also called CDC45 R157C wild-type; source: synthetic peptide, bought: Genecust
In the case of B11, the “KD, major pocket” value in assay [7] was 6.6 µM.

B12: KMT2A 2847-2861 wild-type peptide (peptide)
peptide: SDIMDFVLKNTPSMQY
notes: also called KMT2A L2854Q wild-type; source: synthetic peptide, bought: Genecust
B12: the dissociation constant Kd with CREBBP KIX is 380 µM.

B13: KMT2A 2847-2861 L2854Q peptide (peptide)
peptide: SDIMDFVQKNTPSMQY
notes: also called KMT2A L2854Q mutant; source: synthetic peptide, bought: Genecust
Regarding B13, the Kd with CREBBP KIX was 340 µM.

B14: NSD1 1793-1808 L1797P peptide (peptide)
peptide: EFPVPFFGSNDYLWTH
notes: also called NSD1 L1797P mutant; source: synthetic peptide, bought: Genecust
In the case of B14, in assay [1], the Kd is 49 µM.

B15: MITF 258-271 Y265C peptide (peptide)
peptide: SGNLIDLCGNQGLPY
notes: also called MITF Y265C mutant; source: synthetic peptide, bought: Genecust
For B15, in assay [3], the Kd was 206 µM.

B16: Importin subunit alpha-3 (KPNA4) ARM domain (domain or fragment)
chain: GDYRVQNTSLEAIVQNASSDNQGIQLSAVQAARKLLSSDRNPPIDDLIKSGILPILVHCLERDDNPSLQFEAAWALTNIASGTSEQTQAVVQSNAVPLFLRLLHSPHQNVCEQAVWALGNIIGDGPQCRDYVISLGVVKPLLSFISPSIPITFLRNVTWVMVNLCRHKDPPPPMETIQEILPALCVLIHHTDVNILVDTVWALSYLTDAGNEQIQMVIDSGIVPHLVPLLSHQEVKVQTAALRAVGNIVTGTDEQTQVVLNCDALSHFPALLTHPKEKINKEAVWFLSNITAGNQQQVQAVIDANLVPMIIHLLDKGDFGTQKEAAWAISNLTISGRKDQVAYLIQQNVIPPFCNLLTVKDAQVVQVVLDGLSNILKMAEDEAETIGNLIEECGGLEKIEQLQNHENEDIYKLAYEIIDQFFSSDDIDEDPSLVPEAIQGGTFGFNSSANVPTEGFQF
For the molecule B16, the Kd in the assay with FITC-MYC is 0.008 µM; with FITC-NCOR2, 0.03 µM.

B17: MAPT 717-731 R723W peptide (peptide)
peptide: YSGDTSPWHLSNVSST
notes: microtubule-associated protein tau residues 717-731; also called MAPT R723W mutant; source: synthetic peptide, bought: Genecust
For B17, the Kd in [4] is 39 µM.
